Results taken from the nanobody polyreactivity screen of Harvey et al. (2022).

Assay: yeast display, Sf9 membrane polyspecificity reagent, FACS + sequencing; frameworks hold sequencing errors
How it was run: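 Synthetic nanobody libraries on Saccharomyces cerevisiae BJ5465 were galactose-induced for 36–48 hours, stained 1 hour at 4 °C with 10% biotinylated, detergent-solubilized Sf9 membrane reagent and enriched on streptavidin microbeads. FACS then separated cells into low and high (top ~1%) gates by anti-HA (expression) and streptavidin (reagent binding) fluorescence. Genes were colony-PCR amplified, MiSeq 2 × 250 sequenced and CDR-length filtered. A clone's polyreactivity label is that of its gate of origin.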

Row | Sequence | polyreactivity (PSR sort gate)
1 | QVQLVDSGAGLVQAGGSLRLICAASGSIFPYYAMGWYRQAPGKERELVAGISNGDSTNYADSVKGRFTISGDNAKNTVYLQINSLKPEDTAVYYCSTVLPGGRYYGPYDFWGQGTQVTVSS | low polyreactivity
2 | QVQLVDSGAGLVQAGGSLRLSCAASGRIFYSYAMGWYRQAPGKDRELVARITRGSSTYYADSVKGRFTISRDNAKNTVYLQMNSLKPEDTAVYYCAKSRYTALTNHWSHDYWGQVTQVTVSS | low polyreactivity
3 | QVQLVDSGAGLVQAGGSLRLSCAASGRISYVYAMGWYRQAPGKDRELVAGITWSDGSTFYADSVKGSFTISRDNAKNTVYLQMNSLKPEDTAVYYCAARFNRKILGRYYFWGQGTQVTVSS | high polyreactivity
4 | QVQLVDSGAGLVQAGGSLRLSCAASGSIYYRYALGWYRQAPRQVRELVAAITQSTDSTYYADSVKGRFTISRDNAKNTVYLQMNSLKPEDTAVYYCAAYLVYYRPYAYGYWGQGTQVTVSS | low polyreactivity
5 | QVQLVDSGGALVQAGGSLRLICAASGSTFIINAMGWYRQAPGKDRELVAAISGRGTRTYYADSVKGRFTISRDNAKNSVYLQMKSLKPEDTAVYYCNAVRSLSFTTEHDYWGQGTQVTVSS | high polyreactivity
6 | QVQLVDSGGALVQAGGSLRLSCAASGSTFAYYAMGWYRQAPGKERELVAAITASATNTYYADSVKGRFTISRDNAKNTVYLQMNSLKPEDTAVYYCAADDVDVEHQASWDDYDSWGQGTQVTVSS | low polyreactivity
7 | QVQLVDSGGALVQAGGSLRLSCAASGSTFVVNAIGWYRQAPGKERELVAAIAGGGSTNYADSVKGRFTISRDNAKNTVYLQMNSLKPEDTAVYYCAVDGVEFSSYGYWGQGTQVTVSS | low polyreactivity
8 | QVQLVDSGGGIVQAGGSLRLSCAASGLTFSDYAMGWYRQAPGKEREFVAAITRNGGSTRYADSVKGRFTISRDNAKNTVYLQMNSLKPEDTAVDYCATDVGFGSKQRPHRPGYGYWGQGTQVTVSS | low polyreactivity
9 | QVQLVDSGGGIVQAGGSLRLSCAASGSTLKYNAMGWYRQAPGKERELVAAISTSGGNTYYADSVKGRFTISRDNAKNTVYLQMNSLKPEDTAVYYCAKVLGYYYYDYDSWGQGTQVTVSS | low polyreactivity
10 | QVQLVDSGGGIVQAGGSLRLSCAASGTFDAYAMGWYRQEPGKERELVASISSSGGSTYYADSVKGRFTITRDNAKNTVYLQMYSLNPEDRAVYYCAATDFWYSGYYWGKGTQVTVSS | low polyreactivity
11 | QVQLVDSGGGKVQAGGSLRLSCAASGRTFLVYAMGWYRQAPGKERELVAAISRSGGRTSYADSVKGRFTISRDNAKNTVYLQMNSLKPEDTAVYYCAASGPPCDMDYWGQGTQVTVSS | high polyreactivity
12 | QVQLVDSGGGLFQAGGSLRLSCAASGSTFYRYAKGWYRQAPGKERELVATITNSGGSTYYADSVKGRFTISRDNAKNTVYLPRNSLKPEDTAVYYCAAVGGRLRGDRGGYWGQGSQVTVSS | high polyreactivity
13 | QVQLVDSGGGLVQAAGSLRLSCAASGSTFVTYAMGGYRTAPGKERELVAAISSGAGTNYADSVKGRFTISRDNAKNTVYLQMNSLKPEDTAVDYCAADKAVGDSTRYYYWGQGTQVTVSS | low polyreactivity
14 | QVQLVDSGGGLVQAGASLRLSCAASGIIFTGYAKGWYRQAPGKERDLVAAISGIGTSTYYADSVKGRFTISRDNAKNTVYLQMNSLKPEDTAVYYCAARYVSRRFLGYYYWGQGTQVTVSS | high polyreactivity
15 | QVQLVDSGGGLVQAGASLRLSCAASGSIFRFYAMGWYRQAPGKERELVAAITSRGSTNYADSVKGRFTISRDNAKNTVYLQMKSLKPEDTAVYYCAAELVYFVIYDYWGLGTQVTVSS | low polyreactivity
16 | QVQLVDSGGGLVQAGATLRLSGAASGRIFGCNAMGWYRQAPGKVRELVAAISNGGSTYYADSVKGRFTISRDNAKNTVYFQMNSLKPEDTAVYYCNAAARIGYARRFYYWGQGTQVTVSS | high polyreactivity
17 | QVQLVDSGGGLVQAGCSLRLSCAASGSTFVTNDMGWSRKAPGKERELVAAISSGTSTNYADSVKGRFTISRDNAKNTFYLQMNSLNPEDTAVYYCAADSLKRDDYWGQGTQVTVSS | low polyreactivity
18 | QVQLVDSGGGLVQAGGILRLICAASGSTFGFYAMGWYRQAPGKERELVAAITTGGSTNYADSVKGRFTISRDNAKNTVYLQMNSLKPEDTAVYYCNADVFWNPYYDYDFWGQGTQVTVSS | high polyreactivity
19 | QVQLVDSGGGLVQAGGILRLSCAASGFILSDNAMGWYRQGPGKERELVAAINSGGSTYYADSVKGRFTISRDNAMNTVYLQMNSLKPEDTAVYYCAADFSTWLRAYDYWGQGTQVTVSS | low polyreactivity
20 | QVQLVDSGGGLVQAGGILRLSCAASGNIIYQNALVWSRHAPGKERELVAAITGRGSSTYYADSVKGRFTSSRDNAKNTVYLQMNSLKPEDTAVYYCAADTTPYDGYYGHGYWGQGTQVTVSS | low polyreactivity
21 | QVQLVDSGGGLVQAGGILRLSCAASGSIFSSYAMGWYRQAPGKERELVAAITSGGSTYYADSVKGRFTISRDNAKITVYLQMNSLKREDTAVYYCAAYLSYFGYDYWGQGTQVTVSS | low polyreactivity
22 | QVQLVDSGGGLVQAGGILRLSCAASGSTFDVYAIGWYRQAPGKEWELVAAITWDGDRTYYADSVKGRFTISRDNAKNTVYLQMNSLKPEDTGVYYCNADEGGNYREDYWGQGTQVTVSS | low polyreactivity

Row | Sequence | polyreactivity (PSR sort gate)
23 | QVQLVDSGGGLVQAGGRLRLSCAASGITFYYNAMGWYRQAPGKERELVATISSRGGSTYYADSVKGRFTISRDNAKNTVYLQMNSLKPEDTEVYYCNAGRSRYRWSTTGYTQVRDDYWGQATQVTVSS | high polyreactivity
24 | QVQLVDSGGGLVQAGGRLRLSCAASGRTFSKYAMGWYRQAPGKERELVASITRSGGSTNYADTVKGRFTISRDNAKNTVYLQKNSLKPEDTAVYYCRRKLGRTHDTGFDYWGQGTQVTVSS | low polyreactivity
25 | QVQLVDSGGGLVQAGGRLRLSCAASGSTFGWYGMGWYIQAPGKERELVASINWRGSSTYYADSVKGRFTMSRDNAKNTVYLQMNSLKPEDTAVYYCATTRDWAYNYWGQGTQVTVSS | low polyreactivity
26 | QVQLVDSGGGLVQAGGRLRLSCAPSGSIIIDNAMGWYRQAPGKERELVAAISSSGGSTHYADSVKGRFTISRDNAKNTVYLQMNSLKPEDTAVYYCAAKRGWRGGYYWGQGTQVTVSS | high polyreactivity
27 | QVQLVDSGGGLVQAGGSHRLSCADSGTFVYNAMGWYRQAPGKEREFVAAITKSGTSTSYADSVKGRFTISRDNAKNTVYLQMNSLIPEATAVYYCNARRYWYRRAYSVGYDYWGQGTQVTVSA | high polyreactivity
28 | QVQLVDSGGGLVQAGGSLGLSCAASGSIFRNYAMGWYRQAPGKERELVAAISYRVGRTYYADSVKGRFTISRDNAKNSVYLQMNSLNPEDTAVYYCAADSRSPGHDYWGQGTQVTVSS | low polyreactivity
29 | QVQLVDSGGGLVQAGGSLPLSCAASGFSFVYYAMAWYREAPGKEREFVAAITERGGSTDYADSVKGRFTISRDNAKNTVYLQMNSLKPEDTAVYYCASRNAYVYGMDYWGQGTQVTVSS | low polyreactivity
30 | QVQLVDSGGGLVQAGGSLRITCAASVLTFRRNPMGWYRQAPGKARELLGTITSGGSTNYADTVKGRFTISRDNAKNTVYLQMNSLKPEDTAVYYCNSVHLRIMYYWGQGTQVTVSS | high polyreactivity
31 | QVQLVDSGGGLVQAGGSLRLICAASGFIFTDYAMGWYRQAPGKEREFFAAIDWSGGNTYYADSVKGRFTISRDNAKNTVYLQMKSLKPEDTAVYYCAASGSAREYDYWGQGTQVTVSS | low polyreactivity
32 | QVQLVDSGGGLVQAGGSLRLICAASGRSFYNYAMGRYSEAPGKERELVAAIAGSGGSTYYADSEKGRVTISRDNAKNTGYLQMNSLKPEDTAVDYCSTSGPQYYSRNFDDWGQGTQVTVSS | low polyreactivity
33 | QVQLVDSGGGLVQAGGSLRLISAASGLIFSWYDKGWYRQAPGKERELVAAITTDGDDTYYADSVKGRFTISRDNAKNTVYLQMNSLKPDDTAVYYCAADSELGIRYPDRDYDSWGLGTQVTVSS | low polyreactivity
34 | QVQLVDSGGGLVQAGGSLRLSCAASGFIFGKYAMGWYRPAPGKEREFVAAITGNGGSTYYADSVKGRFTISRDNAKNTVYLQMNSLKPEDTAVYYCAADASWELFAWAHYDYWGQGTQVTVSS | low polyreactivity
35 | QVQLVDSGGGLVQAGGSLRLSCAASGFIFHRYAMGWYRQAPGKERELVAAISSSGGSTYYADSVKGRFTISRDNAKNTVYLQMNSLKPEDTAVYYCAAYYHDGYEFNYWGQGTQLTVSS | high polyreactivity
36 | QVQLVDSGGGLVQAGGSLRLSCAASGFIFKGNAMGWSRQAPGKERELVAAISRSGGRTYYADSVKGRFTISRENAKNTVYLEMNSLKPEDTAVYYGATEGDSFSAYDYWVQGTQVTVSS | high polyreactivity
37 | QVQLVDSGGGLVQAGGSLRLSCAASGFIFKRYAMGWYRQAPGKERELVAAINGGGSSTYYADSVKGRFTISRDNAKNTVYLQMNSLKPDDTAVYYCAADTDSWWYYLYYGEGFDYWGQGTQVTVSS | high polyreactivity
38 | QVQLVDSGGGLVQAGGSLRLSCAASGFIFSWYAMGWYRQAPGKERELVAAINWSGGSTYYADSVKGRFTISRDNAKNTVYLQMNSLKPEDTAVYYCAAVTSGISKYDYWGQGTQVTVSS | high polyreactivity
39 | QVQLVDSGGGLVQAGGSLRLSCAASGFIIGYNAMGWYRQAPGKEREFVAAISYNGGSTRYADSVKGRFTISRDNAKNTVYLQMNSLKPEDTAVYYCAAQKARVYRGAWTRYEYWGQGTQVTVSS | high polyreactivity
40 | QVQLVDSGGGLVQAGGSLRLSCAASGFTFADNAMGWYRQAPGKEREFVAAITWTADSTYYADSVKGRFTISRDNAKNTVYVQMNSLKPEDTAVYYCAASYSTIWTLYYYWGQGTQVTVSS | low polyreactivity
41 | QVQLVDSGGGLVQAGGSLRLSCAASGFTIHYKAMGWYRQAPGKERELVATISKSAGITSYADSVKGRFTISRDNAKNTVYLQMNSLNPEDTAVYYCAADKSYRRVYYWGQGTQVTVSS | low polyreactivity
42 | QVQLVDSGGGLVQAGGSLRLSCAASGFTIVHNAMGWYRQAPGKERELVAAISSSGGRTYYADSVKGRFTISRDNAKNTVYLQMNSLKPEDTAVYYCNARGYRGYDYWGQGTQVTVSS | high polyreactivity
43 | QVQLVDSGGGLVQAGGSLRLSCAASGGTISQYAMGWYRQAPGKERELVARISRRGGSTSYADSVKGRFTISRDNAKNTVYLQMNSLKPEDTAVYYCNAVRFYGRWRWIMEYWGQGSQVTVSS | high polyreactivity
